# Laboratory results published in patent US20250282828A1, “PEPTIDES FOR THE TREATMENT OF RESPIRATORY INFECTIONS OF VIRAL ORIGIN” (CENTRO DE INGENIERÍA GENÉTICA Y BIOTECNOLOGÍA, priority 2020, published 2025).
# Like-named read-outs stand apart in the source and are kept apart here. No end group written: not given here.
# T1: Dengue 2 virus capsid protein (Dengue virus 2), P29990
# T1 chain: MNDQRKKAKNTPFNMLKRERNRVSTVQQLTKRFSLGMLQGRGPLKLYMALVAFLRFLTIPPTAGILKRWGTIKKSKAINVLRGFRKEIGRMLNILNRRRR
# T2: envelope protein of the Zika virus (ZIKV E) (Zika virus), Q32ZE1
# T2 chain: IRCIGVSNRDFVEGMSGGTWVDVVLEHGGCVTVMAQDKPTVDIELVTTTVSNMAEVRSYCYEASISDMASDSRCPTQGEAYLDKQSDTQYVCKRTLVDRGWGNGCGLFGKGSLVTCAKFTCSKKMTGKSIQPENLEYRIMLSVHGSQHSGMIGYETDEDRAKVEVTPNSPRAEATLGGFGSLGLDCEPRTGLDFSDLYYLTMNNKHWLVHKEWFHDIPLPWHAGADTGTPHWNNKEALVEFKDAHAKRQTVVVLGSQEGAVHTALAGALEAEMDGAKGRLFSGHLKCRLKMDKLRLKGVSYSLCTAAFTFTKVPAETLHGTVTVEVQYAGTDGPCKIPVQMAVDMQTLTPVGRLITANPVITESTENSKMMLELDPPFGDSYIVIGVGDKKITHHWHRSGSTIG
# T3: non-structural protein 1 of the Dengue virus 2 (NS1-D2) (Dengue virus 2), P29990
# T3 chain: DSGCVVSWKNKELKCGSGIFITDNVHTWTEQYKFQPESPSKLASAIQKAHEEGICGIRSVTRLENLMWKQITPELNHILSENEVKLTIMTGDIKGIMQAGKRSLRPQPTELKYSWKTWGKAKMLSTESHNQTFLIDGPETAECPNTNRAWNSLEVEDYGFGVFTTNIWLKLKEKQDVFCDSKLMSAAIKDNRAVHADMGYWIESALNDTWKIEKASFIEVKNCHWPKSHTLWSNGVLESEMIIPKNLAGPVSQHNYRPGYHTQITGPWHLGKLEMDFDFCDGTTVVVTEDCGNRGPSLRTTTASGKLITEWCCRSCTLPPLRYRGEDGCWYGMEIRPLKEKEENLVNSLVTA
# Key:
# SARS-CoV-2 [1] = assay: microbe, parasite or virus in culture; conditions: Severe acute respiratory syndrome coronavirus 2, Vero C1008, read-out: IC50 Compound
# SARS-CoV-2 [2] = conditions: VeroE6
# SARS-CoV-2 [3] = tested on: SARS-CoV-2
# SARS-CoV-2 [4] = conditions: 96 h, 100 μM
# viral proteins = assay: BIACORE surface plasmon resonance interaction, all proteins evaluated; format: binding
# [5] = target: T4, nucleocapsid protein of the SARS-CoV-2 virus (N protein) (SARS-CoV-2), P0DTC9; assay: SPR (BIACORE)
# [6] = target: T1, Dengue 2 virus capsid protein (Dengue …); assay: SPR (BIACORE)
# [7] = target: T2, envelope protein of the Zika virus …; assay: SPR (BIACORE)
# [8] = target: T4, nucleocapsid protein of the SARS-CoV-2 …; assay: SPR (BIACORE); Peptide SEQ ID NO: 2
# [9] = target: T1, Dengue 2 virus capsid protein (Dengue …); assay: SPR (BIACORE); Peptide SEQ ID NO: 2
# [10] = target: T4, nucleocapsid protein of the SARS-CoV-2 …
# [11] = target: T3, non-structural protein 1 of the Dengue …
# [12] = target: T1, Dengue 2 virus capsid protein (Dengue …)
# [13] = target: T2, envelope protein of the Zika virus …
# [14] = target: T4, nucleocapsid protein of the SARS-CoV-2 …; assay: SPR (BIACORE); Peptide SEQ ID NO: 1
# [15] = target: T1, Dengue 2 virus capsid protein (Dengue …); assay: SPR (BIACORE); Peptide SEQ ID NO: 1
molecule,measurement,setting,value
NC(=O)c1nc(F)c[nH]c1=O [Favipiravir],IC50,SARS-CoV-2 [1],65.3 µM
N=C(N)c1ccc2cc(OC(=O)c3ccc(N=C(N)N)cc3)ccc2c1 [Nafamostat],IC50,SARS-CoV-2 [1],20.1 µM
CCC(CC)COC(=O)[C@H](C)N[P@](=O)(OC[C@H]1O[C@@](C#N)(c2ccc3c(N)ncnn23)[C@H](O)[C@@H]1O)Oc1ccccc1 [Remdisivir],IC50,SARS-CoV-2 [1],2.4 µM
NC(=O)c1ncn([C@@H]2O[C@H](CO)[C@@H](O)[C@H]2O)n1 [Ribavirin],IC50,SARS-CoV-2 [1],40.2 µM
Ivermectin,IC50,"SARS-CoV-2 [2]; read-out: IC50 Compound + peptide SEQ ID NO: 1, in presence of peptide SEQ ID NO: 1 at 10 μM",0.21 µM
same,IC50,"SARS-CoV-2 [2]; read-out: IC50 Compound + peptide SEQ ID NO: 2, in presence of peptide SEQ ID NO: 2",0.15 µM
same,IC50,"SARS-CoV-2 [2]; read-out: IC50 Compound + peptide SEQ ID NO: 3, in presence of peptide SEQ ID NO: 3",0.2 µM
same,IC50,"SARS-CoV-2 [2]; read-out: IC50 Compound, compound alone",2.7 µM
RVTQMNLNDRLASLADKV [SEQ ID NO: 22],inhibition of SARS-CoV-2 in primary cultures of human airway epithelium,SARS-CoV-2 [3],≤ 20%
same,Inhibition %,SARS-CoV-2 [4],20.2%
same,interaction with the proteins evaluated,viral proteins,did not interact
NLNDRLASLYDKV (modifications not checked) [Peptide SEQ ID NO: 15],Kd,[5],7.82 µM
same,Kd,[6],1.27 µM
same,Kd,[7],0.0624 µM
NDRLASLYDKV (modifications not checked) [Peptide SEQ ID NO: 14],Kd,[5],1.14 µM
same,Kd,[6],5.91 µM
same,Kd,[7],3.2 µM
RVTQMNLNDRLASLYDKV (modifications not checked) [Peptide SEQ ID NO: 2],Kd,[8],0.523 µM
same,Kd,[9],0.754 µM
same,Kd,[7],18.2 µM
RVTQMNLNDRLASLYDKV (modifications not checked) [peptide identified in the Sequence Listing as SEQ ID NO: 1],Kd,[10],0.00358 µM
same,koff,[10],0.000972 s⁻¹
same,kon,[10],271000 M⁻¹ s⁻¹
same,Kd,[11],0.769 µM
same,koff,[11],1.02e-05 s⁻¹
same,Kd,[12],0.00167 µM
same,koff,[12],0.000413 s⁻¹
same,kon,[12],247000 M⁻¹ s⁻¹
same,Kd,[13],1.59 µM
same,koff,[13],0.00154 s⁻¹
same,kon,[13],965 M⁻¹ s⁻¹
same,Kd,[7],1.59 µM
same,Kd,[14],0.00358 µM
same,Kd,[15],0.00167 µM
